Tested on: AMPKα
Assay: Time course immunoblot of p-AMPKα (Thr172)/total AMPKα in primary human TM cell lysates
Format: cell-based
Experimental: Primary human trabecular meshwork (TM) cells were isolated, in accordance with the Declaration of Helsinki, and maintained in culture as described previously.^63 Independent primary human TM cell lines were generated from donors ranging in age from 35 to 72 years and no known history of ocular disease. Cell cultures were maintained, unless otherwise stated, in Dulbecco's modified eagle medium (Life Technologies, Grand Island, N.Y.) containing 20% fetal bovine serum, 1% L-glutamine (2 mM), and gentamicin (0.1 mg/ml) at 37° C. in a 10% CO2 atmosphere. Only TM cells from third through fifth passage were used. All experiments were performed using at least three different primary human TM cell lines.
At the conclusion of each experiment for matricellular and ECM protein detection, conditioned media (CM) from TM cell cultures was harvested and centrifuged at 5000 rpm for 10 minutes at 4° C. The supernatant was then concentrated (Amicon Ultra-4 Filter Unit, 10 kDa; Millipore, Milford, Mass.), and protein content quantified using the DC Protein Assay kit adhering to manufacturer's protocols (Bio-Rad, Hercules, Calif.). For AMPK protein detection, cells were lysed for 3 minutes on ice with cold 1×RIPA buffer containing 0.5% Aprotinin, 0.1% EDTA, 1% EGTA, 0.5% PMSF, and 0.01% Leupeptin. Samples were then centrifuged at 14,000 rpm for 15 minutes at 4° C. and protein content quantified. In all experiments, equal amounts of protein were treated with 6× reducing buffer and boiled for 5 minutes. Samples were then electrophoresed in 10% SDS-polyacrylamide gels, alongside a pre-stained protein marker (Cell Signaling Technology Inc., Danvers, Ma). For conditioned media loading control, the resultant gels were stained with 0.1% Coomassie Brilliant Blue G-250 (Bio-Rad, Hercules Calif.) for 3 hours and were destained with fixing/destaining solution until clear bands were visible and contrasted well with the true blue background. Otherwise, proteins were transferred to nitrocellulose membranes (0.45-μm pore size; Invitrogen). […] The membranes were then washed three times with 1×TBS-T, scanned, and integrated band intensities were calculated using an infrared imaging system (Odyssey; Li-Cor, Lincoln, Nebr.). […]

B1: TGF-β2: activated transforming growth factor-β2 (R&D Systems) used to stimulate TM cells (protein, UniProt P61812 303-414, looked up)
Transforming growth factor …: ALDAAYCFRNVQDNCCLRPLYIDFKRDLGWKWIHEPKGYNANFCAGACPYLWSSDTQHSRVLSLYNTINPEASASPCCVSQDLEPLTILYYIGKTPKIEQLSNMIVKSCKCS
phospho-total AMPK ratio difference vs zero time point (2.5 ng/mL TGF-β2, at 30 minutes): no longer significant
decrease of phospho-total AMPK ratio, normalized to the zero time point (2.5 ng/mL TGF-β2, within 15 minutes, human TM cells): 30%
